# Target: Recombinant His-tagged mouse CD36.ECD protein (Sino Biological) (mouse) (UniProt Q08857)
# Experiment: ELISA, coated mouse CD36.ECD (FIG. 1D)
# Sequence of Recombinant His-tagged mouse CD36.ECD protein (Sino Biological) (mouse) (Q08857 30-439 limits assumed): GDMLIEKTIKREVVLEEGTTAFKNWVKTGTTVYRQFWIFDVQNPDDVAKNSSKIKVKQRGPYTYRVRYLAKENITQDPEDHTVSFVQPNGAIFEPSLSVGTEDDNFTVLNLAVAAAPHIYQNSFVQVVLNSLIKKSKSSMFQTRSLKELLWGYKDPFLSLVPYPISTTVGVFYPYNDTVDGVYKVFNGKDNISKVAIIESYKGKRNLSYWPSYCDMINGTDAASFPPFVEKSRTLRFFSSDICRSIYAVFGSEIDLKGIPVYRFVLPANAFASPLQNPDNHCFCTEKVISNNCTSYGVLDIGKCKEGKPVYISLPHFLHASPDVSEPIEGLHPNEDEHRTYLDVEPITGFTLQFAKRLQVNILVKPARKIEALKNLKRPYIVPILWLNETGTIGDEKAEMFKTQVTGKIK
substance,measurement,value
"D2712 (clone CRF D-2712, BD Biosciences, US) (antibody)",EC50,0.93 nM

# — patent US20250206837A1
